According to patent US20240425571A1 (OHIO STATE INNOVATION FOUNDATION, published 2024):

T1: human GARP (glycoprotein A repetitions predominant, LRRC32) on the cell surface (human, UniProt Q14392 20-662)
T1 construct: whole, on cells; also called hGARP; free GARP
T1 sequence (looked up): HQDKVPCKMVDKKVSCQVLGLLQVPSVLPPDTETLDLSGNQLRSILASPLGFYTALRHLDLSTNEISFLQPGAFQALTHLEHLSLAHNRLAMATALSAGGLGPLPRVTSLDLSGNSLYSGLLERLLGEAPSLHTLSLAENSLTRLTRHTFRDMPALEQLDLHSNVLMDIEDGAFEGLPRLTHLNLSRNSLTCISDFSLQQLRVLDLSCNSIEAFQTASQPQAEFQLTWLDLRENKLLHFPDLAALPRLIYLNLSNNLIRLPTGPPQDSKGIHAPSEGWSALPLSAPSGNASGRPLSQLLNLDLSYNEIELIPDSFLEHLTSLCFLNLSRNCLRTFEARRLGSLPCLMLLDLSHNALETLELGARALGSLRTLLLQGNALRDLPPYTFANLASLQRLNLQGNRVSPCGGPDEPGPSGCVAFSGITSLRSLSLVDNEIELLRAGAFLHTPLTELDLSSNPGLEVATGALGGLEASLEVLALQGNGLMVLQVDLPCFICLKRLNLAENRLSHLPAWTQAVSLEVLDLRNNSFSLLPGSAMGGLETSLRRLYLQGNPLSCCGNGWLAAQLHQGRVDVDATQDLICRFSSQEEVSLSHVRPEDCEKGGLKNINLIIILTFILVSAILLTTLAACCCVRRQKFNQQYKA

T2: human GARP (antigen, construct not stated) (human, UniProt Q14392 20-627, limits assumed)
T2 sequence (looked up): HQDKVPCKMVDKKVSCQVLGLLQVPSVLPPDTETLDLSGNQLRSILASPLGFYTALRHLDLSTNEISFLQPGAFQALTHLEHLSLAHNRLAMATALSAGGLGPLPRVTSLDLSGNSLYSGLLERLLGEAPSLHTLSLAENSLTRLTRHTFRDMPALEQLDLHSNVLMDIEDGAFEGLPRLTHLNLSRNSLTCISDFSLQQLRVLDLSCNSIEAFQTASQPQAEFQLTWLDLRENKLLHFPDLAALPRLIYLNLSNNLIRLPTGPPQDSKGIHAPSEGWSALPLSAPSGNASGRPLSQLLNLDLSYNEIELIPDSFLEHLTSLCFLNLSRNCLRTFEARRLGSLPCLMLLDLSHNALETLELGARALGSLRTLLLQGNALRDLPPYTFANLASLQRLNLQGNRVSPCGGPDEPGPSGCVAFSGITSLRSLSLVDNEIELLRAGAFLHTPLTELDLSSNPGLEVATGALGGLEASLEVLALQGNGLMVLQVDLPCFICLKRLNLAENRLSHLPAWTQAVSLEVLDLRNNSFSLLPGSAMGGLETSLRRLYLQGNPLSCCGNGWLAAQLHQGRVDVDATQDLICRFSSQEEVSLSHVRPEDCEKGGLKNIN


Experiments:
[1] = target: T1, human GARP (glycoprotein A repetitions …); experiment: FACS, Ag(+) cells, culture supernatant, 0.2 ug/ml
[2] = target: T1, human GARP (glycoprotein A repetitions …); experiment: FACS, Ag(+) cells, heated-sample series, 0 ug/ml antibody (blank)
[3] = target: T1, human GARP (glycoprotein A repetitions …); experiment: FACS, Ag(+) cells, 0 ug/ml antibody (blank)
[4] = target: T1, human GARP (glycoprotein A repetitions …); experiment: FACS, Ag(+) cells, culture supernatant, 1 ug/ml
[5] = target: T1, human GARP (glycoprotein A repetitions …); experiment: FACS, Ag(+) cells, culture supernatant, 5 ug/ml
[6] = target: T1, human GARP (glycoprotein A repetitions …); experiment: FACS, Ag(+) cells, supernatant heated 70 C 5 min, 5 ug/ml
[7] = target: T2, human GARP (antigen, construct not …); experiment: Gator label-free kinetics, IgG on anti-human Fc probe, antigen 5 ug/ml
[8] = target: T1, human GARP (glycoprotein A repetitions …); experiment: FACS, Ag(+) cells, supernatant heated 70 C 5 min, 0.2 ug/ml
[9] = target: T1, human GARP (glycoprotein A repetitions …); experiment: FACS, Ag(+) cells, supernatant heated 70 C 5 min, 1 ug/ml

Binder	MFI [1]	MFI [2]	MFI [3]	MFI [4]	MFI [5]	MFI [6]	Kd [7]	Req [7]	Response [7]	kobs [7]	MFI [8]	MFI [9]
huPIIO-1VH1VL1 (antibody, V domains shown, Humanized 4D3/PIIO-1 IgG made in Expi293 cells; also called H1L1; HuPIIO-1VH1/L1) VH: QVQLQESGPGLVKPSQTLSLTCTVSGYSITSDYAWNWIRQFPGNKLEWMGYISYSGSTSYTPSLKSRVTISRDTSKNHFSLKLSSVTAADTAVYYCAKSGGDYYGSSSYWYFDVWGQGTMVTVSS VL: DIVLTQSPSSLAVSLGERATMNCKSSQSLLNSRSQKNYLAWYQQKPGQPPKLLIYGASTRGSGVPDRFSGSGSGTDFTLTISSLQAEDVAVYYCQNDHSYPFTFGQGTKLEIKR	23.9 MFI	9.91 MFI	9.91 MFI	25.8 MFI	26.4 MFI	26.2 MFI	8.05 nM	0.743	0.737	0.0134	–	–
huPIIO-1VH2VL2 (antibody, V domains shown, Humanized IgG from Expi293, tested as culture supernatant; also called H2L2; HuPIIO-1VH2/L2) VH: QVQLQESGPGLVKPSQTLSLTCTVSGYSITSDYAWNWIRQFPGNKLEWMGYISYSGSTSYTPSLKSRITISRDTSKNHFFLKLSSVTAADTAVYYCAKSGGDYYGSSSYWYFDVWGQGTMVTVSS VL: DIVLTQSPSSLAVSLGERVTMNCKSSQSLLNSRSQKNYLAWYQQKPGQPPKLLIYGASTRGSGVPDRFSGSGSGTDFTLTISSVQAEDVAVYYCQNDHSYPFTFGQGTKLEIKR	23.2 MFI	9.91 MFI	9.91 MFI	–	26.2 MFI	26.1 MFI	–	–	–	–	22.6 MFI	24.8 MFI
huPIIO-1VH2VL3 (antibody, V domains shown, Humanized IgG from Expi293, tested as culture supernatant; also called H2L3; HuPIIO-1VH2/L3) VH: QVQLQESGPGLVKPSQTLSLTCTVSGYSITSDYAWNWIRQFPGNKLEWMGYISYSGSTSYTPSLKSRITISRDTSKNHFFLKLSSVTAADTAVYYCAKSGGDYYGSSSYWYFDVWGQGTMVTVSS VL: DIVLTQSPSSLAVSAGERVTMSCKSSQSLLNSRSQKNYLAWYQQKPGQPPKLLIYGASTRGSGVPDRFSGSGSGTDFTLTISSVQAEDVAVYYCQNDHSYPFTFGSGTKLEIKR	23.4 MFI	9.91 MFI	9.91 MFI	25.6 MFI	26.5 MFI	26.4 MFI	–	–	–	–	23.2 MFI	25.4 MFI
huPIIO-1VH1VL2 (antibody, V domains shown, Humanized IgG from Expi293; also called H1L2; HuPIIO-1VH1/L2) VH: QVQLQESGPGLVKPSQTLSLTCTVSGYSITSDYAWNWIRQFPGNKLEWMGYISYSGSTSYTPSLKSRVTISRDTSKNHFSLKLSSVTAADTAVYYCAKSGGDYYGSSSYWYFDVWGQGTMVTVSS VL: DIVLTQSPSSLAVSLGERVTMNCKSSQSLLNSRSQKNYLAWYQQKPGQPPKLLIYGASTRGSGVPDRFSGSGSGTDFTLTISSVQAEDVAVYYCQNDHSYPFTFGQGTKLEIKR	22.2 MFI	9.91 MFI	9.91 MFI	25.2 MFI	26.1 MFI	25.7 MFI	8.15 nM	0.831	0.824	0.0133	21.8 MFI	–
huPIIO-1VH1VL3 (antibody, V domains shown, Humanized IgG from Expi293, tested as culture supernatant; also called H1L3; HuPIIO-1VH1/L3) VH: QVQLQESGPGLVKPSQTLSLTCTVSGYSITSDYAWNWIRQFPGNKLEWMGYISYSGSTSYTPSLKSRVTISRDTSKNHFSLKLSSVTAADTAVYYCAKSGGDYYGSSSYWYFDVWGQGTMVTVSS VL: DIVLTQSPSSLAVSAGERVTMSCKSSQSLLNSRSQKNYLAWYQQKPGQPPKLLIYGASTRGSGVPDRFSGSGSGTDFTLTISSVQAEDVAVYYCQNDHSYPFTFGSGTKLEIKR	22.9 MFI	9.91 MFI	9.91 MFI	25.7 MFI	26.3 MFI	26.3 MFI	–	–	–	–	23 MFI	25.4 MFI
huPIIO-1VH2VL1 (antibody, V domains shown, Humanized IgG from Expi293; also called H2L1; HuPIIO-1VH2/L1) VH: QVQLQESGPGLVKPSQTLSLTCTVSGYSITSDYAWNWIRQFPGNKLEWMGYISYSGSTSYTPSLKSRITISRDTSKNHFFLKLSSVTAADTAVYYCAKSGGDYYGSSSYWYFDVWGQGTMVTVSS VL: DIVLTQSPSSLAVSLGERATMNCKSSQSLLNSRSQKNYLAWYQQKPGQPPKLLIYGASTRGSGVPDRFSGSGSGTDFTLTISSLQAEDVAVYYCQNDHSYPFTFGQGTKLEIKR	23.3 MFI	9.91 MFI	9.91 MFI	–	26.8 MFI	26.2 MFI	8.03 nM	0.71	0.703	0.0133	23 MFI	25.1 MFI
huPIIO-1VH3VL1 (antibody, V domains shown, Humanized IgG from Expi293, tested as culture supernatant; also called H3L1; HuPIIO-1VH3/L1) VH: DVQLQESGPGLVKPSQTLSLTCTVSGYSITSDYAWNWIRQFPGNKLEWMGYISYSGSTSYTPSLKSRITISRDTSKNHFFLKLSSVTAADTATYYCAKSGGDYYGSSSYWYFDVWGQGTTVTVSS VL: DIVLTQSPSSLAVSLGERATMNCKSSQSLLNSRSQKNYLAWYQQKPGQPPKLLIYGASTRGSGVPDRFSGSGSGTDFTLTISSLQAEDVAVYYCQNDHSYPFTFGQGTKLEIKR	23.9 MFI	9.91 MFI	9.91 MFI	25.1 MFI	26.7 MFI	25.7 MFI	–	–	–	–	23.6 MFI	–

Results, then the binder that gave them:

MFI [1]	MFI [2]	MFI [3]	MFI [4]	MFI [5]	MFI [6]	Kd [7]	Req [7]	Response [7]	kobs [7]	MFI [8]	MFI [9]	Binder
24.8 MFI	9.91 MFI	9.91 MFI	26.2 MFI	27.3 MFI	26.9 MFI	–	–	–	–	24.2 MFI	25.4 MFI	huPIIO-1VH4VL1 (antibody, V domains shown, Humanized IgG from Expi293, tested as culture supernatant; also called H4L1; HuPIIO-1VH4/L1) VH: DVQLQESGPGLVKPSQTLSLTCTVSGYSITSDYAWNWIRQFPGNKLEWMGYISYSGSTSYTPSLKSRITISRDTSKNHFFLQLSSVTAEDTATYYCAKSGGDYYGSSSYWYFDVWGQGTTVTVSS VL: DIVLTQSPSSLAVSLGERATMNCKSSQSLLNSRSQKNYLAWYQQKPGQPPKLLIYGASTRGSGVPDRFSGSGSGTDFTLTISSLQAEDVAVYYCQNDHSYPFTFGQGTKLEIKR
21.9 MFI	9.91 MFI	9.91 MFI	25.3 MFI	26.2 MFI	25.8 MFI	–	–	–	–	22.1 MFI	24.6 MFI	huPIIO-1VH3VL3 (antibody, V domains shown, Humanized IgG from Expi293, tested as culture supernatant; also called H3L3; HuPIIO-1VH3/L3) VH: DVQLQESGPGLVKPSQTLSLTCTVSGYSITSDYAWNWIRQFPGNKLEWMGYISYSGSTSYTPSLKSRITISRDTSKNHFFLKLSSVTAADTATYYCAKSGGDYYGSSSYWYFDVWGQGTTVTVSS VL: DIVLTQSPSSLAVSAGERVTMSCKSSQSLLNSRSQKNYLAWYQQKPGQPPKLLIYGASTRGSGVPDRFSGSGSGTDFTLTISSVQAEDVAVYYCQNDHSYPFTFGSGTKLEIKR
22.7 MFI	9.91 MFI	9.91 MFI	24.9 MFI	26.4 MFI	26.5 MFI	–	–	–	–	22.7 MFI	24.6 MFI	huPIIO-1VH3VL2 (antibody, V domains shown, Humanized IgG from Expi293, tested as culture supernatant; also called H3L2) VH: DVQLQESGPGLVKPSQTLSLTCTVSGYSITSDYAWNWIRQFPGNKLEWMGYISYSGSTSYTPSLKSRITISRDTSKNHFFLKLSSVTAADTATYYCAKSGGDYYGSSSYWYFDVWGQGTTVTVSS VL: DIVLTQSPSSLAVSLGERVTMNCKSSQSLLNSRSQKNYLAWYQQKPGQPPKLLIYGASTRGSGVPDRFSGSGSGTDFTLTISSVQAEDVAVYYCQNDHSYPFTFGQGTKLEIKR
